B1: Zinc finger CCCH domain-containing protein 7B (Homo sapiens), Q9UGR2 (parent)
chain: MERQKRKADIEKGLQFIQSTLPLKQEEYEAFLLKLVQNLFAEGNDLFREKDYKQALVQYMEGLNVADYAASDQVALPRELLCKLHVNRAACYFTMGLYEKALEDSEKALGLDSESIRALFRKARALNELGRHKEAYECSSRCSLALPHDESVTQLGQELAQKLGLRVRKAYKRPQELETFSLLSNGTAAGVADQGTSNGLGSIDDIETDCYVDPRGSPALLPSTPTMPLFPHVLDLLAPLDSSRTLPSTDSLDDFSDGDVFGPELDTLLDSLSLVQGGLSGSGVPSELPQLIPVFPGGTPLLPPVVGGSIPVSSPLPPASFGLVMDPSKKLAASVLDALDPPGPTLDPLDLLPYSETRLDALDSFGSTRGSLDKPDSFMEETNSQDHRPPSGAQKPAPSPEPCMPNTALLIKNPLAATHEFKQACQLCYPKTGPRAGDYTYREGLEHKCKRDILLGRLRSSEDQTWKRIRPRPTKTSFVGSYYLCKDMINKQDCKYGDNCTFAYHQEEIDVWTEERKGTLNRDLLFDPLGGVKRGSLTIAKLLKEHQGIFTFLCEICFDSKPRIISKGTKDSPSVCSNLAAKHSFYNNKCLVHIVRSTSLKYSKIRQFQEHFQFDVCRHEVRYGCLREDSCHFAHSFIELKVWLLQQYSGMTHEDIVQESKKYWQQMEAHAGKASSSMGAPRTHGPSTFDLQMKFVCGQCWRNGQVVEPDKDLKYCSAKARHCWTKERRVLLVMSKAKRKWVSVRPLPSIRNFPQQYDLCIHAQNGRKCQYVGNCSFAHSPEERDMWTFMKENKILDMQQTYDMWLKKHNPGKPGEGTPISSREGEKQIQMPTDYADIMMGYHCWLCGKNSNSKKQWQQHIQSEKHKEKVFTSDSDASGWAFRFPMGEFRLCDRLQKGKACPDGDKCRCAHGQEELNEWLDRREVLKQKLAKARKDMLLCPRDDDFGKYNFLLQEDGDLAGATPEAPAAAATATTGE

Variants of: B1
Conditions: with nsp3_rots4 nsp3, Q00721
nsp3_rots4 nsp3, Q00721, sequence (Q00721 whole entry): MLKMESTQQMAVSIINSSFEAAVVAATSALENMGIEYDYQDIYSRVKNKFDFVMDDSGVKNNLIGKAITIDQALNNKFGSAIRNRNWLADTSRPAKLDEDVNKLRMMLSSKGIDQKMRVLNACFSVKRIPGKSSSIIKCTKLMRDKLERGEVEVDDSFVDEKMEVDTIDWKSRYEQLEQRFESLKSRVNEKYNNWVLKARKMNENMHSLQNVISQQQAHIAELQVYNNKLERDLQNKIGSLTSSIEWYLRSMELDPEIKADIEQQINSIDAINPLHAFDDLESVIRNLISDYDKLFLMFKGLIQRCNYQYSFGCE

Variant | effect of a mutation on the interaction
L252A;D253A;D254A | decreasing interaction

From IntAct's records for PubMed 15047801
